Laboratory results reported in article PMC7840946 (2021).
Substitutions are numbered along the chain they refer to. Read-outs that look alike come from different tables or passages of the source.

Legend:
[1] = target: T1, PstS1 (Rv0934), recombinant, wild type (Mycobacterium tuberculosis, UniProt P9WGU1); assay: SPR
[2] = target: T1, PstS1 (Rv0934), recombinant, wild type; assay: SPR; remark: listed apart in the source

T1 sequence (P9WGU1 25-374): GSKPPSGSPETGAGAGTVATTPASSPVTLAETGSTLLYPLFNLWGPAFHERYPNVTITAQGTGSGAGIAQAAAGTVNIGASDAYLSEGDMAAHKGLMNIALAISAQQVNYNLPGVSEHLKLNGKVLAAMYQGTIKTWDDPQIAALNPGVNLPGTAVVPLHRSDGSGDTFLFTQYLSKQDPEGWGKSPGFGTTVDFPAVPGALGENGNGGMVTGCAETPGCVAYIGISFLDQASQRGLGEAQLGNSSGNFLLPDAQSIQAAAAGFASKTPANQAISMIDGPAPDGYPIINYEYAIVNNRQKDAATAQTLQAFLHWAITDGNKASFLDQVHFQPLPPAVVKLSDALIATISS

B1: mAb p4-163 (human IgG1) (antibody, V domains shown)
VH: EVQLVESGGGLVKPGGSLRLSCAASGFTFESHRMHWVRQAPGKGLEWVSSIISSRTYIYYADSVKGRFTISRDNSRNSLFLQMNSLRAEDTAVYYCARGDYYYDGVASDPHFDNWGQGTLVTVSS
VL: QSVLTQPPSASGTPGQRVTISCSGGRSNIGSNYVYWFQQLPGTAPQLLIYRNIQRPSGVPARFSGSKSGTSASLAISGLRSEDEADYYCATWDDSLSGVVFGGGTKVTVL
Kd [1]: 4.45 nM

B2: mAb p4-170 (human IgG1) (antibody, V domains shown)
VH: B1 VH with E30S, R76G, A88V
VL: B1 VL with P7T, G25S, L40F, T43A, G69D, D86H, T91A
Kd [1]: 1.34 nM

B3: p4-36gl, predicted germline version of mAb p4-36 (antibody, V domains shown)
VH: EVQLVESGGGLVQPGRSLRLSCTASGFTFGDYAMSWVRQAPGKGLEWVGFIRSKAYGGTTEYAASVKGRFTISRDDSKSIAYLQMNSLKTEDTAVYYCTGPRPYYDSSGYYPYYFDYWGQGTLVTVSS
VL: QSALTQPRSVSGSPGQSVTISCTGTSSDVGGYNYVSWYQQHPGKAPKLMIYDVSKRPSGVPDRFSGSKSGNTASLTISGLQAEDEADYYCCSYAGSYTYVVFGGGTKLTVL
Kd [2]: 6.85 nM
